The subject of the data set is Escherichia coli TOP10. Nature of the data set: shrunken log2 fold change of peptide-encoding DNA abundance (4.5 h post-induction vs induction); higher = less antimicrobial activity (less host growth inhibition). To be noted: time post-induction: 4.5 h; library: site-saturation at positions 5, 18, 19, 20.
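Further: peptides expressed intracellularly from a pBAD plasmid library in pooled LB shake-flask culture, induced with 0.3% L-arabinose, DNA abundance read by NGS, three biological replicates, DESeq2 with apeglm shrinkage.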

RRIRTRPPRLPRPRPRPPVCPRP: the “shrunken log2 fold change” value was found to be 0.713. Consider RRIRKRPPRLPRPRPRPAKLPRP, for which the “shrunken log2 fold change” value worked out at 0.446. On to RRIRDRPPRLPRPRPRPWLRPRP, for which the “shrunken log2 fold change” value turned out to be 0.081.

On to RRIRWRPPRLPRPRPRPWPGPRP, for which the “shrunken log2 fold change” value was determined as 0.217. As to RRIRRRPPRLPRPRPRPHDIPRP, the “shrunken log2 fold change” value is -0.127. Turning to RRIRIRPPRLPRPRPRPNLQPRP, the “shrunken log2 fold change” value is -0.285. With RRIRKRPPRLPRPRPRPLDHPRP, the “shrunken log2 fold change” value came out at 0.118.

In the case of RRIRMRPPRLPRPRPRPVAGPRP, the “shrunken log2 fold change” value turned out to be 1.31. Turning to RRIRCRPPRLPRPRPRPKSEPRP, the “shrunken log2 fold change” value was -0.0877. Regarding RRIRERPPRLPRPRPRPPVGPRP, the “shrunken log2 fold change” value was determined as 0.0345. As to RRIRMRPPRLPRPRPRPGPWPRP, the “shrunken log2 fold change” value was determined as 0.89.

For RRIRRRPPRLPRPRPRPPTLPRP, the “shrunken log2 fold change” value is 0.739. For RRIRFRPPRLPRPRPRPFSMPRP, the “shrunken log2 fold change” value was -0.232.

In the case of RRIRPRPPRLPRPRPRPLYSPRP, the “shrunken log2 fold change” value is -0.194.

With RRIRIRPPRLPRPRPRPTPCPRP, the “shrunken log2 fold change” value worked out at 0.598.

As to RRIRERPPRLPRPRPRPYSNPRP, the “shrunken log2 fold change” value was -0.905. Then RRIRSRPPRLPRPRPRPMPVPRP, with 0.0216. With RRIRMRPPRLPRPRPRPEDIPRP, the “shrunken log2 fold change” value was -0.0245. Then RRIRQRPPRLPRPRPRPTRTPRP, with 1.65.

In the case of RRIRPRPPRLPRPRPRPSVGPRP, the “shrunken log2 fold change” value is -0.295. The result for RRIRWRPPRLPRPRPRPIKTPRP reads 0.00902. In the case of RRIRSRPPRLPRPRPRPSRFPRP, the “shrunken log2 fold change” value was -0.0392. The result for RRIRSRPPRLPRPRPRPMSHPRP reads -0.109. Turning to RRIRSRPPRLPRPRPRPFKHPRP, the “shrunken log2 fold change” value is -0.195. The result for RRIRDRPPRLPRPRPRPEPNPRP reads 0.746; that for RRIRFRPPRLPRPRPRPILHPRP, -0.75. Then RRIRFRPPRLPRPRPRPRVGPRP, with 0.24. Consider RRIRARPPRLPRPRPRPSRIPRP, for which the “shrunken log2 fold change” value was found to be 0.163. For the sequence RRIRCRPPRLPRPRPRPLYCPRP, the “shrunken log2 fold change” value was -0.593. For the sequence RRIRCRPPRLPRPRPRPSHNPRP, the “shrunken log2 fold change” value is -0.628. In the case of RRIRRRPPRLPRPRPRPSWCPRP, the “shrunken log2 fold change” value was -0.154.

Take RRIRFRPPRLPRPRPRPPKNPRP: the “shrunken log2 fold change” value is 0.541.

In the case of RRIRARPPRLPRPRPRPSDTPRP, the “shrunken log2 fold change” value was -0.339. Turning to RRIRYRPPRLPRPRPRPAHEPRP, the “shrunken log2 fold change” value was 0.241. As for RRIRSRPPRLPRPRPRPFIFPRP, the “shrunken log2 fold change” value is -0.343.

With RRIRRRPPRLPRPRPRPVPDPRP, the “shrunken log2 fold change” value turned out to be 0.173.

As for RRIRPRPPRLPRPRPRPGYAPRP, the “shrunken log2 fold change” value is 0.177. On to RRIRPRPPRLPRPRPRPMRRPRP, for which the “shrunken log2 fold change” value was found to be 0.537. Take RRIRFRPPRLPRPRPRPWKQPRP: the “shrunken log2 fold change” value was -0.469.

For the sequence RRIRERPPRLPRPRPRPRCIPRP, the “shrunken log2 fold change” value was -0.425. Then RRIRPRPPRLPRPRPRPVGNPRP, with -0.0903; and RRIRARPPRLPRPRPRPELQPRP, with 0.731; and RRIRHRPPRLPRPRPRPCSVPRP, with -0.00861. Then RRIRNRPPRLPRPRPRPHDLPRP, with 0.0667; and RRIRWRPPRLPRPRPRPRFNPRP, with 0.0235; and RRIRGRPPRLPRPRPRPPCRPRP, with 0.637.

For the sequence RRIRCRPPRLPRPRPRPPKQPRP, the “shrunken log2 fold change” value was found to be 0.123. The result for RRIRTRPPRLPRPRPRPFVRPRP reads -1.25; that for RRIRWRPPRLPRPRPRPQIAPRP, 0.141. Consider RRIRHRPPRLPRPRPRPYFFPRP, for which the “shrunken log2 fold change” value was -0.485. The result for RRIRWRPPRLPRPRPRPCIFPRP reads -0.683; that for RRIRFRPPRLPRPRPRPDTMPRP, -0.0817; that for RRIRWRPPRLPRPRPRPFRGPRP, 0.0269. Regarding RRIRDRPPRLPRPRPRPDETPRP, the “shrunken log2 fold change” value stood at 0.0461. With RRIRLRPPRLPRPRPRPWFRPRP, the “shrunken log2 fold change” value is -0.252. Take RRIRIRPPRLPRPRPRPNPYPRP: the “shrunken log2 fold change” value was -0.659. Then RRIRDRPPRLPRPRPRPFVDPRP, with 0.063; and RRIRWRPPRLPRPRPRPDQAPRP, with 0.11; and RRIRDRPPRLPRPRPRPIYNPRP, with -0.771. For the sequence RRIRARPPRLPRPRPRPFDLPRP, the “shrunken log2 fold change” value worked out at 0.0229. In the case of RRIRWRPPRLPRPRPRPQQHPRP, the “shrunken log2 fold change” value was -0.056.

As to RRIRARPPRLPRPRPRPDPPPRP, the “shrunken log2 fold change” value stood at 0.901. As for RRIRERPPRLPRPRPRPSVQPRP, the “shrunken log2 fold change” value is -0.204. For RRIRWRPPRLPRPRPRPWDKPRP, the “shrunken log2 fold change” value was -0.0732. Consider RRIRKRPPRLPRPRPRPLYSPRP, for which the “shrunken log2 fold change” value is -0.105. In the case of RRIRVRPPRLPRPRPRPTAMPRP, the “shrunken log2 fold change” value turned out to be 0.0686. With RRIRARPPRLPRPRPRPVAGPRP, the “shrunken log2 fold change” value came to 0.35. For the sequence RRIRIRPPRLPRPRPRPLCPPRP, the “shrunken log2 fold change” value is -0.502. Take RRIRHRPPRLPRPRPRPKEAPRP: the “shrunken log2 fold change” value was determined as 0.00884. Then RRIRNRPPRLPRPRPRPEIQPRP, with -0.0724. Then RRIRNRPPRLPRPRPRPCPEPRP, with 0.113; and RRIRIRPPRLPRPRPRPYLAPRP, with -0.941; and RRIRRRPPRLPRPRPRPCTLPRP, with -0.49. Regarding RRIRTRPPRLPRPRPRPMDMPRP, the “shrunken log2 fold change” value was 0.0382. For the sequence RRIRQRPPRLPRPRPRPVCGPRP, the “shrunken log2 fold change” value was found to be 0.205. Then RRIRTRPPRLPRPRPRPDWLPRP, with 0.514; and RRIRWRPPRLPRPRPRPNNSPRP, with -0.723. For the sequence RRIRTRPPRLPRPRPRPHKWPRP, the “shrunken log2 fold change” value was -0.029. Turning to RRIRKRPPRLPRPRPRPTVTPRP, the “shrunken log2 fold change” value came to 0.229. In the case of RRIRHRPPRLPRPRPRPVPCPRP, the “shrunken log2 fold change” value came to 0.337.

Take RRIRWRPPRLPRPRPRPWNKPRP: the “shrunken log2 fold change” value was determined as 0.087.

Turning to RRIRKRPPRLPRPRPRPQQLPRP, the “shrunken log2 fold change” value came out at 0.0814. The result for RRIRKRPPRLPRPRPRPDKGPRP reads -0.022; that for RRIRFRPPRLPRPRPRPLFLPRP, -0.478.

Turning to RRIRQRPPRLPRPRPRPCCTPRP, the “shrunken log2 fold change” value was -0.137. On to RRIRYRPPRLPRPRPRPHNRPRP, for which the “shrunken log2 fold change” value was -0.245. Take RRIRFRPPRLPRPRPRPNFSPRP: the “shrunken log2 fold change” value is -0.283. With RRIRQRPPRLPRPRPRPCHAPRP, the “shrunken log2 fold change” value is -0.126.

Regarding RRIRDRPPRLPRPRPRPFTNPRP, the “shrunken log2 fold change” value was -0.0104. For the sequence RRIRVRPPRLPRPRPRPLGMPRP, the “shrunken log2 fold change” value is -0.481. As to RRIRKRPPRLPRPRPRPGNYPRP, the “shrunken log2 fold change” value is -0.113.

Values taken from the supplement of paper PMC9112550, “Optimization of the antimicrobial peptide Bac7 by deep mutational scanning” (BMC Biology, 2022).
